Molecular target: CSF-1R on cynomolgous monocytes (native receptor of CD14-enriched peripheral blood monocytes) (cynomolgous)
Assay: cell-based or functional assay

B1: Mab 2F11 (antibody, V domains shown)
VH: QVQLKESGPGLVAPSQSLSITCTVSGFSLTTYDISWIRQSPGKGLEWLGVIWTDGGTNYNSPFMSRLSIRKDNSKSQVFLKMNRLQTDDTAIYYCVRDQRLYFDVWGAGTTVTVSS
VL: NIVMTQSPKSMSMSVGERVTLNCKASEDVNTYVSWYQQQPEQSPKLLIYGASNRYTGVPDRFTGGGSTTDFTLTISSVQAEDLADYFCGQSFSYPTFGTGTKLEIK
- % inhibition (of survival) = (100% - % survival) (CellTiterGlo; cynomolgous monocytes with 150 ng/ml huCSF-1; 5 µg/ml antibody): 96%
- % survival (CellTiterGlo; cynomolgous monocytes with 150 ng/ml huCSF-1; 5 µg/ml antibody): 4%

B2: Mab 2E10 (antibody, V domains shown)
VH: QVQLKESGPGLVAPSKSLSITCTVSGSSLDSFDISWIRQSPGKGLEWLGVIWTGGGTNYNSGFMSRLRITKDNSKSQVLLKMNSLQSDDTAIYYCVRDPRLYFDVWGAGTTVTVSS
VL: NIVMTQSPKSMSMSVGERVTLSCKASEDVVTYVSWYQQKPDQSPKLLIYGASNRYTGVPDRFTGSGSATDFTLTISSVQAEDLADYYCGQTFSYPTFGTGTKLEIK
- % inhibition (of survival) = (100% - % survival) (CellTiterGlo; cynomolgous monocytes with 150 ng/ml huCSF-1; 5 µg/ml antibody): 83%
- % survival (CellTiterGlo; cynomolgous monocytes with 150 ng/ml huCSF-1; 5 µg/ml antibody): 17%

B3: Mab 2H7 (antibody, V domains shown)
VH: QVQLKESGPGLVAPSKSLSITCTVSGSSLDSFDISWIRQPPGKGLEWLGVIWTGGGTNYNSGFMSRLRISKDNSKSQVFLKMSSLQSDDTAIYYCVRDPRLYFDVWGAGTTVTVSS
VL: NIVMTQSPKSMSMSVGERVTLSCKASEDVVTYVSWYQQKPEQSPKLLIYGASNRYTGVPDRFTGSGSATDFTLTISSIQAEDLADYYCGQTFSYPTFGTGTKLEIK
- % inhibition (of survival) = (100% - % survival) (CellTiterGlo; cynomolgous monocytes with 150 ng/ml huCSF-1; 5 µg/ml antibody): 92%
- % survival (CellTiterGlo; cynomolgous monocytes with 150 ng/ml huCSF-1; 5 µg/ml antibody): 8%

B4: Mab 1G10 (antibody, V domains shown)
VH: RVQLKESGPGLVAPSQSLSITCTVSGFSLTSYDISWIRQSPGKGLEWLGVIWSGGGTNYNSPFMSRLRISKDDSRSQVFLKVNRLQTDDTAIYYCVRDLRLYFDVWGAGTTVTVSS
VL: KIVMTQSPKSMSVSVGERVSLSCKASEDVGTYVSWYQQKPEQSPKLLIYGSSNRYTGVPDRFTGSGSATDFTLTISSVQAEDLADYSCGQSFTYPTFGTGTKLEIK
- % inhibition (of survival) = (100% - % survival) (CellTiterGlo; cynomolgous monocytes with 150 ng/ml huCSF-1; 5 µg/ml antibody): 98%
- % survival (CellTiterGlo; cynomolgous monocytes with 150 ng/ml huCSF-1; 5 µg/ml antibody): 2%

— patent publication US20150274831A1 (Hoffmann-La Roche, published 2015)
